The series is described as follows: soluble on expression in E. coli; label from the status in PepcDB or PDB records.
Turning to “MAHHHHHHMKNCMMADQRGRSILQYQPIVGDEALEFSRGLAPSTFGFRYAAYMDRNHFLPSGRTAVKHIADPTLAYVMTRYRQCHDFVHIITGCGRSIEEELAVKIFEWKHTGLPLGLLSLLGGAPRLSAAQWAHIRLYWEWASRNAPSSRHGEPAVPMYLNVPWEDMLAKEYDEVVAYTGITPLPDFLEKRQKH”, the “soluble on expression in E. coli” value is “not soluble”.

As to “KDFLAMFSPKCGGCNRPVLENYLSAMDTVWHPECFVCGDCFTSFSTGSFFELDGRPFCELHYHHRRG”, the “soluble on expression in E. coli” value was “soluble”.

As to “MSRDARWKALLELLVERGRLDVEEAATELEVSAATIRRDFDRLAEQQMLVRTRGGAVVHGVSYELPLRYKTARRASEKQRVAQAVAALVAPGEAVGLTGGTTTTEVARALAVRADLASGTPALTVVTNALNIANELAVRPQFKIVVTGGVARAQSYELIGPLADGVLGQVTLDVAVLGVVAFDVAHGAAAHDEAEAAINRLLCERAERVVVAADSSKLGRRAFARICATESVDTLVTDGAADPELVGRFEEAGVRVVTALEHHHHHH”, the “soluble on expression in E. coli” value is “not soluble”.

Consider “MRLLVADDHPLFRLGLKAALEAEGLEVVAEAGTGEEALVQALEKAPDAVLLDLRMPGMDGLTCARRLREMGYRGLVILLTTYQEPALLLEAYKAGADAYLSKELSAPELKRRLLRIRQGEERLTAPDIPALTPREEEVLRLLAEGLSTKEIARALRLSPETVRSHLESLYAKLEARNRVEALSRARSLGLLP”, for which the “soluble on expression in E. coli” value was “soluble”.

Consider “PRNSKNDGVDTAIYHHKLRDQVLKALYDVLAKESEHPPQSILHTAKAIESEMNKVNNCDTNEAAYKARYRIIYSNVISKNNPDLKHKIANGDITPEFLATCDAKDLAPAPLKQKIEEIAKQNLYNAQGATIERSVTDRFTCGKCKEKKVSYYQLQTRSADEPLTTFCTCEACGNRWKFS”, for which the “soluble on expression in E. coli” value is listed as “soluble”.

In the case of “SLINNLSTHSYWPNRGQLEVQGLTVKYTEAGRAVLNDISFSVDGGQSVGLLGRTGSGKSTLLSALLGLNYTEGEMFIDGVSSSSMPLEAWRKAFGVVPQKVFILTGTFRMNLDPYGRYSDDELWRVAEEVGLKSVIEQFPDKLDFELKDGGSVLSNGHKQLMCLARSILSKARILLLDEPSSYLDPITLQVLRKTLKQSFSGCTVILSEHKVEPLLECDSFLMIEKSSVKSYDSIQKLMNEMSDLKQAISPAD”, the “soluble on expression in E. coli” value is “not soluble”.

Turning to “SKQNPLKRKRNDEITEEKVVLLMAMHKEDDEHQHTKPSPPSWEILCLVGPYMDPESLAVASCVSTTWSKCFSSEDLWKSLPATRHSIFAKAITKEGAKPAWLSYKRLISEAESAAKRRRNNQPAEPKISLSDLVFIVHVSAGSKEAVVVKQGKDLVFGSNERFQIEADVRDSGFTADMKDVSMSWNVVLRNYERMFLMSETVIKSLDSMIGWFTDELPGTKNRYCDGSNLVGEVKPSFNEDVLDKVVFAIADSRNWKSLFVDDVLRYLQCFLVD”, the “soluble on expression in E. coli” value was “soluble”.

For “MPTTIEREFEELDTQRRWQPLYLEIRNESHDYPHRVAKFPENRNRNRYRDVSPYDHSRVKLQNAENDYINASLVDIEEAQRSYILTQGPLPNTCCHFWLMVWQQKTKAVVMLNRIVEKESVKCAQYWPTDDQEMLFKETGFSVKLLSEDVKSYYTVHLLQLENINSGETRTISHFHYTTWPDFGVPESPASFLNFLFKVRESGSLNPDHGPAVIHCSAGIGRSGTFSLVDTCLVLMEKGDDINIKQVLLNMRKYRMGLIQTPDQLRFSYMAIIEGAKCIKGDSSIQKRWKELSKEDLSPAFDHSPNKIMTEKYN”, the “soluble on expression in E. coli” value is recorded as “soluble”.

As to “MGSDKIHHHHHHSNKKTVDPNPVVRDNIIHLSTAIKNVREEMMLSELVDSVSYIPLETNPNCMLGNYQRLTFSPQYIFYSNYCFDWNGQFLFRIGSQGQGACEDIYVHVADIVYLNNHFYGNASKIIEYDDRGKCTGKELSWFTQKTMDTAPVGHLVNQVCFAPAGENLMFYNFPDTVYFINTDYEFVAKRSMMPWGRKGGAPSMSGGDPRFKYTSYYKDTTLFYNFYTDTVFTVTPTSLMPRWVVELDEELRFPTRYLYEDGLLSEAFKCWESGNLENAKMIKLLDHKYMVSGVFETERFVFLSVYECMPFRELRKLPETPPLTAIYNKRTGETFAVKQVVDDLGGMKAFFPSWGAYNEKLLATIWPYKLKEFIEEEQSAGRTVAPQILNLMQRVREDDNPVLIIAHLKK”, the “soluble on expression in E. coli” value is given as “not soluble”.

Source of the values: the DeepSol protein solubility set.
